Patent US20220074941A1, “HSP90 COMBINATION THERAPY” (Sloan-Kettering Institute for Cancer Research, priority 2011, published 2022)

Tests used:
[1] = tested on: Hsp90 complexes in K562 cell extract; assay: Nano-LC-MS/MS of PU-beads pull-downs; assay type: binding; conditions: protein identified in PU-beads pull-down of K562 cell extract, QSTAR-Elite QTof MS
Summary of the method: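 Proteins were identified by data-dependent nano LC-MS/MS (QTof, ESI) and Mascot searching (p<0.05), then reported as spectral counts and coverage via Scaffold. Inputs were PU-bead versus control-bead pull-downs from lysate pre-cleared with control beads overnight at 4 °C, eluted by boiling in 2% SDS.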

[2] = tested on: Hsp90 complexes in Mia-PaCa-2 cell extract; assay: Nano-LC-MS/MS of PU-beads pull-downs; assay type: binding, human; conditions: protein identified in PU-beads pull-down of Mia-PaCa-2 cell extract; QSTAR-Elite QTof MS
Summary of the method: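 They came from PU-bead pull-downs of pre-cleared lysates (control beads, overnight, 4 °C), eluted by boiling in 2% SDS, gel-separated and run by data-dependent nano-ESI QTof MS/MS.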

Molecule	Number of Assigned Spectra, K562 Prep 1 [1]	Number of Assigned Spectra, K562 Prep 2 [1]	Number of Assigned Spectra, Mia-Paca 2 [2]
FTSJD2 (protein, UniProt Q8N1G2 1-835, looked up) Cap-specific mRNA …: MKRRTDPECTAPIKKQKKRVAELALSLSSTSDDEPPSSVSHGAKASTTSLSGSDSETEGKQHSSDSFDDAFKADSLVEGTSSRYSMYNSVSQKLMAKMGFREGEGLGKYSQGRKDIVEASSQKGRRGLGLTLRGFDQELNVDWRDEPEPSACEQVSWFPECTTEIPDTQEMSDWMVVGKRKMIIEDETEFCGEELLHSVLQCKSVFDVLDGEEMRRARTRANPYEMIRGVFFLNRAAMKMANMDFVFDRMFTNPRDSYGKPLVKDREAELLYFADVCAGPGGFSEYVLWRKKWHAKGFGMTLKGPNDFKLEDFYSASSELFEPYYGEGGIDGDGDITRPENISAFRNFVLDNTDRKGVHFLMADGGFSVEGQENLQEILSKQLLLCQFLMALSIVRTGGHFICKTFDLFTPFSVGLVYLLYCCFERVCLFKPITSRPANSERYVVCKGLKVGIDDVRDYLFAVNIKLNQLRNTDSDVNLVVPLEVIKGDHEFTDYMIRSNESHCSLQIKALAKIHAFVQDTTLSEPRQAEIRKECLRLWGIPDQARVAPSSSDPKSKFFELIQGTEIDIFSYKPTLLTSKTLEKIRPVFDYRCMVSGSEQKFLIGLGKSQIYTWDGRQSDRWIKLDLKTELPRDTLLSVEIVHELKGEGKAQRKISAIHILDVLVLNGTDVREQHFNQRIQLAEKFVKAVSKPSRPDMNPIRVKEVYRLEEMEKIFVRLEMKIIKGSSGTPKLSYTGRDDRHFVPMGLYIVRTVNEPWTMGFSKSFKKKFFYNKKTKDSTFDLPADSIAPFHICYYGRLFWEWGDGIRVHDSQKPQDQDKLSKEDVLSFIQMHRA	3	1	0
SARM1 (protein, UniProt Q6SZW1 28-724, looked up) NAD(+) hydrolase SARM1: LAVPGPDGGGGTGPWWAAGGRGPREVSPGAGTEVQDALERALPELQQALSALKQAGGARAVGAGLAEVFQLVEEAWLLPAVGREVAQGLCDAIRLDGGLDLLLRLLQAPELETRVQAARLLEQILVAENRDRVARIGLGVILNLAKEREPVELARSVAGILEHMFKHSEETCQRLVAAGGLDAVLYWCRRTDPALLRHCALALGNCALHGGQAVQRRMVEKRAAEWLFPLAFSKEDELLRLHACLAVAVLATNKEVEREVERSGTLALVEPLVASLDPGRFARCLVDASDTSQGRGPDDLQRLVPLLDSNRLEAQCIGAFYLCAEAAIKSLQGKTKVFSDIGAIQSLKRLVSYSTNGTKSALAKRALRLLGEEVPRPILPSVPSWKEAEVQTWLQQIGFSKYCESFREQQVDGDLLLRLTEEELQTDLGMKSGITRKRFFRELTELKTFANYSTCDRSNLADWLGSLDPRFRQYTYGLVSCGLDRSLLHRVSEQQLLEDCGIHLGVHRARILTAAREMLHSPLPCTGGKPSGDTPDVFISYRRNSGSQLASLLKVHLQLHGFSVFIDVEKLEAGKFEDKLIQSVMGARNFVLVLSPGALDKCMQDHDCKDWVHKEIVTALSCGKNIVPIIDGFEWPEPQVLPEDMQAVLTFNGIKWSHEYQEATIEKIIRFLQGRSSRDSSAGSDTSLEGAAPMGPT	0	0	5
ZC3HAV1 (protein, UniProt Q7Z2W4 2-902, looked up) Zinc finger CCCH-type …: ADPEVCCFITKILCAHGGRMALDALLQEIALSEPQLCEVLQVAGPDRFVVLETGGEAGITRSVVATTRARVCRRKYCQRPCDNLHLCKLNLLGRCNYSQSERNLCKYSHEVLSEENFKVLKNHELSGLNKEELAVLLLQSDPFFMPEICKSYKGEGRQQICNQQPPCSRLHICDHFTRGNCRFPNCLRSHNLMDRKVLAIMREHGLNPDVVQNIQDICNSKHMQKNPPGPRAPSSHRRNMAYRARSKSRDRFFQGSQEFLASASASAERSCTPSPDQISHRASLEDAPVDDLTRKFTYLGSQDRARPPSGSSKATDLGGTSQAGTSQRFLENGSQEDLLHGNPGSTYLASNSTSAPNWKSLTSWTNDQGARRKTVFSPTLPAARSSLGSLQTPEAVTTRKGTGLLSSDYRIINGKSGTQDIQPGPLFNNNADGVATDITSTRSLNYKSTSSGHREISSPRIQDAGPASRDVQATGRIADDADPRVALVNDSLSDVTSTTSSRVDDHDSEEICLDHLCKGCPLNGSCSKVHFHLPYRWQMLIGKTWTDFEHMETIEKGYCNPGIHLCSVGSYTINFRVMSCDSFPIRRLSTPSSVTKPANSVFTTKWIWYWKNESGTWIQYGEEKDKRKNSNVDSSYLESLYQSCPRGVVPFQAGSRNYELSFQGMIQTNIASKTQKDVIRRPTFVPQWYVQQMKRGPDHQPAKTSSVSLTATFRPQEDFCFLSSKKYKLSEIHHLHPEYVRVSEHFKASMKNFKIEKIKKIENSELLDKFTWKKSQMKEEGKLLFYATSRAYVESICSNNFDSFLHETHENKYGKGIYFAKDAIYSHKNCPYDAKNVVMFVAQVLVGKFTEGNITYTSPPPQFDSCVDTRSNPSVFVIFQKDQVYPQYVIEYTEDKACVIS	7	0	0
PSPC1 (protein, UniProt Q8WXF1 1-523, looked up) Paraspeckle component 1: MMLRGNLKQVRIEKNPARLRALESAVGESEPAAAAAMALALAGEPAPPAPAPPEDHPDEEMGFTIDIKSFLKPGEKTYTQRCRLFVGNLPTDITEEDFKRLFERYGEPSEVFINRDRGFGFIRLESRTLAEIAKAELDGTILKSRPLRIRFATHGAALTVKNLSPVVSNELLEQAFSQFGPVEKAVVVVDDRGRATGKGFVEFAAKPPARKALERCGDGAFLLTTTPRPVIVEPMEQFDDEDGLPEKLMQKTQQYHKEREQPPRFAQPGTFEFEYASRWKALDEMEKQQREQVDRNIREAKEKLEAEMEAARHEHQLMLMRQDLMRRQEELRRLEELRNQELQKRKQIQLRHEEEHRRREEEMIRHREQEELRRQQEGFKPNYMENREQEMRMGDMGPRGAINMGDAFSPAPAGNQGPPPMMGMNMNNRATIPGPPMGPGPAMGPEGAANMGTPMMPDNGAVHNDRFPQGPPSQMGSPMGSRTGSETPQAPMSGVGPVSGGPGGFGRGSQGGNFEGPNKRRRY	5	2	0
SLC3A2 (protein, UniProt P08195 1-630, looked up) Amino acid transporter heavy …: MELQPPEASIAVVSIPRQLPGSHSEAGVQGLSAGDDSELGSHCVAQTGLELLASGDPLPSASQNAEMIETGSDCVTQAGLQLLASSDPPALASKNAEVTGTMSQDTEVDMKEVELNELEPEKQPMNAASGAAMSLAGAEKNGLVKIKVAEDEAEAAAAAKFTGLSKEELLKVAGSPGWVRTRWALLLLFWLGWLGMLAGAVVIIVRAPRCRELPAQKWWHTGALYRIGDLQAFQGHGAGNLAGLKGRLDYLSSLKVKGLVLGPIHKNQKDDVAQTDLLQIDPNFGSKEDFDSLLQSAKKKSIRVILDLTPNYRGENSWFSTQVDTVATKVKDALEFWLQAGVDGFQVRDIENLKDASSFLAEWQNITKGFSEDRLLIAGTNSSDLQQILSLLESNKDLLLTSSYLSDSGSTGEHTKSLVTQYLNATGNRWCSWSLSQARLLTSFLPAQLLRLYQLMLFTLPGTPVFSYGDEIGLDAAALPGQPMEAPVMLWDESSFPDIPGAVSANMTVKGQSEDPGSLLSLFRRLSDQRSKERSLLHGDFHAFSAGPGLFSYIRHWDQNERFLVVLNFGDVGLSAGLQASDLPASASLPAKADLLLSTQPGREEGSPLELERLKLEPHEGLLLRFPYAA	3	0	0
NFKB1 (protein) MAEDDPYLGRPEQMFHLDPSLTHTIFNPEVFQPQMALPTDGPYLQILEQPKQRGFRFRYVCEGPSHGGLPGASSEKNKKSYPQVKICNYVGPAKVIVQLVTNGKNIHLHAHSLVGKHCEDGICTVTAGPKDMVVGFANLGILHVTKKKVFETLEARMTEACIRGYNPGLLVHPDLAYLQAEGGGDRQLGDREKELIRQAALQQTKEMDLSVVRLMFTAFLPDSTGSFTRRLEPVVSDAIYDSKAPNASNLKIVRMDRTAGCVTGGEEIYLLCDKVQKDDIQIRFYEEEENGGVWEGFGDFSPTDVHRQFAIVFKTPKYKDINITKPASVFVQLRRKSDLETSEPKPFLYYPEIKDKEEVQRKRQKLMPNFSDSFGGGSGAGAGGGGMFGSGGGGGGTGSTGPGYSFPHYGFPTYGGITFHPGTTKSNAGMKHGTMDTESKKDPEGCDKSDDKNTVNLFGKVIETTEQDQEPSEATVGNGEVTLTYATGTKEESAGVQDNLFLEKAMQLAKRHANALFDYAVTGDVKMLLAVQRHLTAVQDENGDSVLHLAIIHLHSQLVRDLLEVTSGLISDDIINMRNDLYQTPLHLAVITKQEDVVEDLLRAGADLSLLDRLGNSVLHLAAKEGHDKVLSILLKHKKAALLLDHPNGDGLNAIHLAMMSNSLPCLLLLVAAGADVNAQEQKSGRTALHLAVEHDNISLAGCLLLEGDAHVDSTTYDGTTPLHIAAGRGSTRLAALLKAAGADPLVENFEPLYDLDDSWENAGEDEGVVPGTTPLDMATSWQVFDILNGKPYEPEFTSDDLLAQGDMKQLAEDVKLQLYKLLEIPDPDKNWATLAQKLGLGILNNAFRLSPAPSKTLMDNYEVSGGTVRELVEALRQMGYTEAIEVIQAASSPVKTTSQAHSLPLSPASTRQQIDELRDSDSVCDSGVETSFRKLSFTESLTSGASLLTLNKMPHDYGQEGPLEGKI	1	0	2
DIABLO (protein, UniProt Q9NR28 22-239, looked up) Diablo IAP-binding …: LCVPVVANFKKRCFSELIRPWHKTVTIGFGVTLCAVPIAQKSEPHSLSSEALMRRAVSLVTDSTSTFLSQTTYALIEAITEYTKAVYTLTSLYRQYTSLLGKMNSEEEDEVWQVIIGARAEMTSKHQEYLKLETTWMTAVGLSEMAAEAAYQTGADQASITARNHIQLVKLQVEEVHQLSRKAETKLAEAQIEELRQKTQEEGEERAESEQEAYLRED	1	0	2
